Data reported in the RNAGym collection of RNA variant scans (doi:10.1073/pnas.2313332121).
Fewer inactive variants are shown than the library holds.

B1: TPR 5TU (parent)
chain: GGAUCUUCUCGAUCUAACAAAAAAGACAAAUCUGCCACAAAGCUUGAGAGCAUCUUCGGAUGCAGAGGCGGCAGCCUUCGGUGGCGCGAUAGCGCCAACGUUCUCAACUAUGACACGCAAAACGCGUGCUCCGUUGAAUGGAGUUUAUCAUG

Variants of: B1
Test: polymerase ribozyme fitness, log enrichment relative to wild type (log ratio); higher = more active; in vitro selection for triplet polymerase activity
Outline: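 Both subunits of a heterodimeric triplet polymerase ribozyme were given their own mutant library, built by PCR and transcribed. Each library was annealed with a biotinylated primer, the partner subunit and triplets, incubated frozen at −7 °C, and its extended constructs gel-excised, captured on streptavidin beads and amplified by RT-PCR, all in one round done in triplicate. Fitness is the logarithm of genotype enrichment relative to wild-type enrichment, with replicates averaged by inverse-variance weighting. That logarithm is base 2, and Illumina-sequenced genotypes needed ≥10 input reads and ≥1 read per output.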

Variant	polymerase ribozyme fitness (log ratio)
A17U C57A G83C C99G	≤ -4.2
A91U A106G	-4.01
G94C A97U G136U	-3.38
C5A C72U C85U C95U	-0.0103
A17C C18G A26U A41C U45G A49U U55A G62A G92U C108U C118U	≤ -4.2
A20C C79A U82C A107C	≤ -4.2
A21U U44A C93G G94C	≤ -4.2
C85G C125A U144A	-3.57
A47G U55A C79G C93U	≤ -4.2
U15A G59A A60U C79U C87A	≤ -4.2
A40C A49U A52U A60G G83U	≤ -4.2
A89U U90C G94U C114U G117U G133U	≤ -4.2
G11A A26U G48A U109C A147G	≤ -4.2
A20C C87G G94C C99A A107U C108G	≤ -4.2
A52G A64U U101G A107C C125G	≤ -4.2
U56C G58U C114U A119U	-1.67
C38U U134G	-2.53
C35U G58U G74A G80U G83A C116G	≤ -4.2
G59C G94C	-0.253
U44C A89U C103A A120U	≤ -4.2
U13C U61C C85U A89C U144A	≤ -4.2
C38U U45A U55C U101G	≤ -4.2
C54U U77G A121C	≤ -4.2
A119U G126A	0.174

Variant	polymerase ribozyme fitness (log ratio)
A12G A16U G50A G83C C85A U90C	≤ -4.2
A17G G46A C69A A121G	-3.45
A26C C105U	-2.13
C38U G42A C75G A91G C95U C105U A113U C118G	≤ -4.2
A22G U53C U82G A98U	0.397
C32G C87U	-3.63
C14G A20U	-2.37
C54G G140U	-3.63
C87U C129G	-2.63
C75G C95U	-2.19
U9A A39U U61A C76U C93A A120U G141A	≤ -4.2
U53A C118U U134C G141A U146C	-0.702
C14G U61G	-3.62
A19U G42U A113G A121U G124C U148A	≤ -4.2
A24U C93U U104G	-1.84
G83A G141C	-1.87
U4A A22U A40G U145A	-3.05
G92A C103A G126A	-3.74
A21G A24U U53A G94A	-0.529
A30U U101G	-3.89
A37U A49U U55A U56A U127A	≤ -4.2
U13A A21C U56A A60G G92U U102A C114U C123U	-3.84
C27A A30C A89G G92A C105U G140U	-3.96
A16G A40C A119C U127C	-3.55

Variant	polymerase ribozyme fitness (log ratio)
U53A G71C G88A	≤ -4.2
C27U C35U U53A U56G C57A C93A A113C A122G U146A C149G	≤ -4.2
A30U U77G G84U C129G G152C	≤ -4.2
A47G A98G A115G C123G U130A	-3.77
C32U G68A C85A G94A U139A A147C	≤ -4.2
A49G C85U G117U U135C G143C	-4.06
C36U G62A A91C C96G A113U	≤ -4.2
A22U G86U	-1.05
A47U C96A G126A C129A A137U	≤ -4.2
C76U C85A	-2.44
C10G U146G	-4.19
C36A G84A	-3.37
C27A C54G G67U G84C	≤ -4.2
G83U C95U C118U U144A	-3.4
U6A A12G A17C G25C U55G A89G	-3.61
A28G A41G U45A G94C A97U	-3.76
A49G A91G A142C	-3.71
A23C C108G A115G A138U U148C	≤ -4.2
C36A A97U U101C U139A	≤ -4.2
G58U C76A	0.0806
A66G C96U	-3.66
A23C G34U C43U A60G C132U	-4.02
C10U G42C A49C A66G C79G A91G C125A A147G A150C	≤ -4.2
U6A G50C A52C	≤ -4.2

Variant	polymerase ribozyme fitness (log ratio)
C10G C93U	-3.86
U9G U15C A19U C35G A113U C132U	≤ -4.2
U55C C72U A150U	0.059
A29C A39G U139A	≤ -4.2
C35U A40U U55A C99A U101G G152A	≤ -4.2
C8G C32U G80U	-4.14
C14A G94U A107G	≤ -4.2
C18U G84A	-0.579
U6G A21C G152A	-2.84
A19C C32U C69A U77C C103A G143A U145A	≤ -4.2
C18G A29U U31G U44C A49U C76U A98G C118A	≤ -4.2
A41G U104G C105U A122C	-1.26
C93A A119G A120U	-2.53
A20G U33A U55G C87A G140C	≤ -4.2
A28U U61A G74C	≤ -4.2
U4A C27U G83C G117A A122G U146A	-3.14
U6C C14G A40C A52U A91U	≤ -4.2
C5U A47G C79A A138G	≤ -4.2
G11A A73G G92A A121G	≤ -4.2
G46C A110G	≤ -4.2
A49C U145G	≤ -4.2
G81C G83U G133A	-3.88
C32G C87A A115C	≤ -4.2
U13G A30C C85A	≤ -4.2

Variant	polymerase ribozyme fitness (log ratio)
U4A A22C G48U C75G G84A	≤ -4.2
A30C C36G U77G C116U C125U G133C	≤ -4.2
U7G A23G C32A A115G	≤ -4.2
C105G G141C	-2.56
C8U U56G G59A G65A G84U A91G	≤ -4.2
A23U C93A U135C	≤ -4.2
U6G C8G C18U C54U C131U	-3.56
A23C A40C G83U U102A U145A	≤ -4.2
G59C A73G C85A	-2.84
A16C C51U C87G C118G G133U	≤ -4.2
G42A G94U	≤ -4.2
U53A C95A A120G	-1.57
A22C A24U G50C G58A C93U G94U	≤ -4.2
U55C C85A A91C G126A	-4.06
A20C A115U	-2.36
C27U A30G A52C	≤ -4.2
G83A C105U A110G U134C	-3.98
U53A U56G A115U A120G	-2.77
C35G C79A G83A A121U	≤ -4.2
A29U A37G C54U C87G C116A	≤ -4.2
U6A A28G G59A C93U C99G C108A G140A G141U	≤ -4.2
C35U C57G C85A G124A A138C U139A A142C U144G	≤ -4.2
A29C A52G C87U G100C A138U U139A A147C	≤ -4.2
C18G A49C C57G C87A G128U U146G	≤ -4.2

Variant	polymerase ribozyme fitness (log ratio)
G50A C108A G124U U148G	≤ -4.2
U78A G81A C93G A97U U151C	≤ -4.2
C35A A60G C87U C96A G136A U146A	-4.03
C54G U55A G58A C99G C132A	≤ -4.2
A19C G65A G83C	-1.84
U55A G58C A97G	0.512
A24U A26C A29U A40U A52G G62U C85U	≤ -4.2
G88A C96G	-3.74
C57G C76U G88A G92U	-3.96
A39G A47C	-1.49
A52C C54U U78A C87U U135A	≤ -4.2
C54G C85A G92C G133U U146G	≤ -4.2
G83C A150G	-2.66
C76A G88C	≤ -4.2
G62U C63U G68A C95A C103A	≤ -4.2
A89C A150C	-3.81
U55A C76A	-0.81
A26U A49C	≤ -4.2
A21U G34A C93U C99G C149G	≤ -4.2
A12U C85U G136U	-3.16
U4A U55A A64C	≤ -4.2
A19G C96U U101G	-0.801
C14G A24C A26U C36A A73G A107U A119U U144A	≤ -4.2
U15G A73C G84U C96A C103G A110G A137C	≤ -4.2

Variant	polymerase ribozyme fitness (log ratio)
C85U C95A G136U A138C	≤ -4.2
G71U G84A A106U C118A G152A	≤ -4.2
G84A G136U	-2.81
C5U C38U C54U G94U A115U A119G G136U A147U	-3.8
C8A U31C A41U G58A G71A C76U C125U A142G	≤ -4.2
A52G C57A G58A G83U C95U	-0.758
U13G A22G A24U A28G C76U U78A C79G G81A U102G C114A	≤ -4.2
A3C A17C A19U G25C C93U A115G A120U	≤ -4.2
C8A A12G A41C A47G U53A G143U U151C	≤ -4.2
A22U A89U	0.229
A52G C57A G84A	-0.599
U44A G50A U77A U78A C93G A115C G133A G141A	-4.14
G92C A138G G140A	≤ -4.2
U78G C79U G94C A115C G143A	≤ -4.2
U44A U55A C75A G84A C105U	≤ -4.2
C38U U101G U135A	-0.00114
U9C A37U G92A U102G C108U	≤ -4.2
A17C A40U U55A A60U A66C C85G C116G G141C A147U	≤ -4.2
G74C C116G A150U	≤ -4.2
C63G U90G G94A	-3.97
C125U U134A	-1.89
A20G A21U A23U C87A A91C C95A C118G G133U U135A	≤ -4.2
A39G U55A C75G C87U A89U C99U C116U A142U	≤ -4.2
